# Data published in patent publication US20110086767A1, “MUTANTS OF GLYCOSIDE HYDROLASES AND USES THEREOF FOR SYNTHESIZING COMPLEX OLIGOSACCHARIDES AND DISACCHARIDE INTERMEDIATES” (Institut Pasteur, priority 2008, published 2011).
# Substitutions are numbered along the chain they refer to. Names and notes keep the numbering of the source.
# B1: A289P-F290C: double mutant A289P, F290C of N. polysaccharea amylosucrase (protein)
# chain: SPNSQYLKTRILDIYTPEQRAGIEKSEDWRQFSRRMDTHFPKLMNELDSVYGNNEALLPMLEMLLAQAWQSYSQRNSSLKDIDIARENNPDWILSNKQVGGVCYVDLFAGDLKGLKDKIPYFQELGLTYLHLMPLFKCPEGKSDGGYAVSSYRDVNPALGTIGDLREVIAALHEAGISAVVDFIFNHTSNEHEWAQRCAAGDPLFDNFYYIFPDRRMPDQYDRTLREIFPDQHPGGFSQLEDGRWVWTTFNSFQWDLNYSNPWVFRAMAGEMLFLANLGVDILRMDAVPCIWKQMGTSCENLPQAHALIRAFNAVMRIAAPAVFFKSEAIVHPDQVVQYIGQDECQIGYNPLQMALLWNTLATREVNLLHQALTYRHNLPEHTAWVNYVRSHDDIGWTFADEDAAYLGISGYDHRQFLNRFFVNRFDGSFARGVPFQYNPSTGDCRVSGTAAALVGLAQDDPHAVDRIKLLYSIALSTGGLPLIYLGDEVGTLNDDDWSQDSNKSDDSRWAHRPRYNEALYAQRNDPSTAAGQIYQDLRHMIAVRQSNPRFDGGRLVTFNTNNKHIIGYIRNNALLAFGNFSEYPQTVTAHTLQAMPFKAHDLIGGKTVSLNQDLTLQPYQVMWLEIA
# B2: A289P-F290I: double mutant A289P, F290I of N. polysaccharea amylosucrase (protein)
# chain: B1 chain with C290I
# B3: A289P-F290L: double mutant A289P, F290L of N. polysaccharea amylosucrase (protein)
# chain: B1 chain with C290L
# B4: F290I: single mutant F290I of N. polysaccharea amylosucrase (protein)
# chain: B1 chain with P289A, C290I
# Test: HPLC screening of double-mutant libraries for variants able to glucosylate D-GlcpNAc
# Format: biochemical
# Details: α-D-Glcp-(1→4)-α-D-GlcpNAc (ED) from sucrose and D-GlcpNAc, microplate format
# Experimental: The protocol was established to enable the rapid identification of clones for which D-GlcpNAc glucosylation was improved. To obtain higher amounts of enzymes and facilitate detection of glucosylated compounds upon HPLC screening, mutants were produced in 96-DeepWell Format plates. Storage microplates containing monomutants were thawed and replicated to inoculate a starter culture in 96-well microplates containing, in each well, 150 μL LB medium supplemented with ampicillin (100 μg/mL). After growth for 24 h at 30° C. under agitation (200 rpm), plates were duplicated into 96-Deep Well plates containing, in each well, 1.1 mL LB medium supplemented with ampicillin (100 μg/mL) and IPTG (1 mM) to induce GST-AS expression. Cultures were then grown for 24 h at 30° C. under agitation (200 rpm). Plates were centrifuged (20 min, 3000 g, 4° C.) and the supernatant was removed. The cell pellet was resuspended in 200 μL of lysozyme (0.5 mg/mL), followed by freezing at −80° C. for 8 to 12 h. After thawing at room temperature, 100 μL of sucrose and 100 μL of acceptor (each at a final concentration of 73 mM) were added to each well. Enzymatic reaction was incubated at 30° C. during 24 h under agitation. The DeepWell plates were then centrifuged (20 min, 3000 g, 4° C.) and 300 μL of the supernatant was transferred to a filter micro-plate (PVDF 0.2 μm) to be clarified. Supernatant filtration was carried out by centrifugation of the filter micro-plate (5 min, 2000 g, 4° C.) into a novel microplate for screening.
# The method for the expression of the mutant libraries is described in Example 1-1.
# Acceptor reaction products were analyzed by HPLC analysis using a C18-AQ column (Bischoff C18, 125×4 mm, 3 μm) kept at room temperature and eluted with 0.6 mL/min of ultra-pure water to detect α-D-Glcp-(1→4)-α-D-GlcpNAc formation (analysis time: 7 min). To evaluate the efficiency of the glucosylation reaction, it was carried out complementary HPLC analyses with a Biorad HPX-87K Carbohydrate Analysis column (maintained at 65° C., and eluted at a flow rate of 0.6 mL/min with ultra-pure water). By this way, it was possible to measure sucrose consumption by RI detection and concomitant α-D-Glcp-(1-4)-α-D-GlcpNAc formation by UV220 nm and determine mutant ability to synthesize the desired disaccharide α-D-Glcp-(1→4)-α-D-GlcpNAc (i.e., % Glucosyl units transferred onto acceptor derivatives=[Glucosyl units transferred onto acceptor derivatives]/[Glucosyl units transferred from initial sucrose]×100)
# All clones producing sucrose-utilizing variants were then picked and cultured in 96-well microplates. Following cell lysis, the acceptor reaction in the presence of D-GlcpNAc was then carried out in microplate format. HLPC analysis time for each clone was reduced to 7 min for detection of α-D-Glcp-(1→4)-α-D-GlcpNAc. When disaccharide formation was detected, complementary analyses were performed to determine sucrose consumption and disaccharide formation with more accuracy in order to calculate the glucosylation yield.
row,Molecule,Glusosylation Yield to synthesize ED
1,B1,100%
2,B2,100%
3,B3,100%
4,B4,16%

# Test: Kinetic parameters towards sucrose donor
# Format: biochemical
# Details: 250 mM sucrose
# Experimental: Enzyme assays were carried out in a total volume of 2 mL containing pure enzyme (0.073 mg, 0.153 mg and 0.092 mg when using A289P-F290C, A289P-F2901 and A289P-F290L, respectively).
# Kinetic studies of AS variants were performed in the presence of sucrose (0-500 mM). At regular time intervals (2-5 min), aliquots (200 μL) were removed, heated (95° C., 2 min) and centrifuged (18000 g, 5 min) All the samples were filtered on a 0.22 μm membrane and analyzed using HPLC material previously described. The initial rate of sucrose consumed, corresponding to the initial rate of fructose released, was expressed in mole of fructose released per minute and per gram of enzyme. The kinetic parameters kcat and Km were calculated using Eadie-Hofstee plot.
row,Molecule,V250mM (initial rate of sucrose consumption)
1,B1,2186 µmol/min/g
2,B2,946 µmol/min/g
3,B3,1717 µmol/min/g

# Same assay, conditions: sucrose donor alone
row,Molecule,behaviour (at high concentration)
1,B1,saturation
2,B2,saturation
3,B3,saturation

# Test: Kinetic parameters towards α-D-GlcpNAc-OAll acceptor
# Format: biochemical
# Details: 250 mM for both sucrose and α-D-GlcpNAc-OAll
# Experimental: Enzyme assays were carried out in a total volume of 2 mL containing pure enzyme (0.037 mg, 0.076 mg and 0.046 mg when using A289P-F290C, A289P-F2901 and A289P-F290L, respectively).
# The kcat/Km (α-D-GlcpNAc-OAll) value was calculated from the initial rate of formation of desired disaccharide (α-D-Glcp-(1→4)-α-D-GlcpNAc-OAll), corresponding to the initial rate of α-D-GlcpNAc-OAll consumed. As saturation was not achieved with the mutants, efficiency was calculated by linear regression analysis of the velocity versus substrate concentration plot.
row,Molecule,V250mM (initial rate of acceptor consumption)
1,B1,50 000 μmol/min/g
2,B2,51 400 μmol/min/g
3,B3,67 300 μmol/min/g
